# Experimental data: patent US20210054094A1 (Hoffmann-La Roche, published 2021)
# T1: murine GPRC5D (murine, UniProt Q9JIL6 1-344)
# T1 construct: whole, on cells; also called murin GPRC5D
# T1 sequence (looked up): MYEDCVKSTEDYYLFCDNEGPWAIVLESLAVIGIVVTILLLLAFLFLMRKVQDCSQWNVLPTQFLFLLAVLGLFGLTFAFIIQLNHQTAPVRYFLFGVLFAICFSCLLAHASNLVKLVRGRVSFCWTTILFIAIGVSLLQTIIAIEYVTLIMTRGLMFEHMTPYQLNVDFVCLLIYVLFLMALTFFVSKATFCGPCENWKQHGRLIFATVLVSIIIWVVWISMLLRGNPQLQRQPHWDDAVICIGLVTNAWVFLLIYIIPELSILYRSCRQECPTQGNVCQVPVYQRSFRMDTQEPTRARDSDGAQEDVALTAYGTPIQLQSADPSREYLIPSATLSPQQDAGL
# Assays:
# murine GPRC5D = target: T1, murine GPRC5D; assay: cell ELISA on stably transfected CHO cells
# Protocol: (§1) Stable transfected CHO clones expressing either human GPRC5D or cynomolgus GPRC5D or murin GPRC5D or human GPRC5A were used to analyze the binding of potential lead candidate antibodies as IgGs. In detail, 10⁴ cells (viability≥98%) were seeded into 384 well-microtiter plates (BD Poly D-Lysin, #356662, volume: 25 μl/well) using fresh culture medium. After overnight incubation at 37° C., 25 μl/well dilutions of antibodies were added (15×1:3 dilutions in 1×PBS, assay conc. starts at 30 μg/ml) to the cells for 2 hours at 4° C. After one washing step using 90 μl/well PBST (10×PBS, Roche, #11666789001+0.1% Tween 20), cells were subsequently fixed by the addition of 50 μl/well 0.05% glutharaldehyde (Sigma Cat. No: G5882 in 1×PBS) for 10 min at room temperature (RT). After three additional washing steps using 90 μl/well PBST, secondary antibodies were added for detection: for human antibodies goat anti-human Ig κ chain antibody HRP conjugate (Millipore #AP502P) diluted 1:2000 in blocking buffer (1×PBS (Roche #11666789001)+2% BSA (Bovine Serum Albumin Fraction V, fatty acid free, Roche, #10735086001)+0.05% Tween 20) was used (25 μl/well). […] After incubation for 1 h at RT and three additional washing steps using 90 μl/well PBST, 25 μl/well TMB substrate was added (Roche order no. 11835033001) for 10 min and color development to final ODs was determined by measurement at 370 nm/492 nm.
# (§2) Cynomolgus crossreactivity was also detected for all other antibodies but at lower levels compared to 10B10 and 07A04 (FIG. 9). No significant binding to CHO cells expressing murine GPRC5D and no binding to CHO cells expressing the human version of GPRC5A was detected (FIG. 9).
# human GPRC5A = target: T2, human GPRC5A (human, UniProt Q8NFJ5 1-357); assay: cell ELISA on stably transfected CHO cells
# T2 construct: whole, on cells; also called hu GPCR5A
# T2 sequence (Q8NFJ5 whole entry): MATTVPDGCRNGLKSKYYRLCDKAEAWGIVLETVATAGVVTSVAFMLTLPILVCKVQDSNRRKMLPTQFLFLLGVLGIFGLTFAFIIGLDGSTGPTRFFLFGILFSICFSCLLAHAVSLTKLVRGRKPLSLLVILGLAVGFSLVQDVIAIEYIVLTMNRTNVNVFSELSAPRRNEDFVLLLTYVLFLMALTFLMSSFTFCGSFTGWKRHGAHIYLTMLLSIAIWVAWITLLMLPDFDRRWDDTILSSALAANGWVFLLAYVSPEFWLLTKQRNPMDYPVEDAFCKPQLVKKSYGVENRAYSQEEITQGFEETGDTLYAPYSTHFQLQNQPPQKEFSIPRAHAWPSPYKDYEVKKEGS
# Protocol: as §1, §2
Binder,binding result (murine GPRC5D),binding result (human GPRC5A)
"10B10 IgG (antibody, V domains shown, also called rat IgG 10B10) VH: EVQLVESGGGLVQPGRSMKLSCAASGFTFTNFYMAWVRQAPTKALEWVASINTGGGYTYYRDSVKGRFTVSRDNTRSTLYLQMDSLRSEETATYYCARHLTYYGRYYYFDYWGQGVMVTVSS VL: DIQLTQSPHSLSASLGETVSIECLASEGISNYLAWFHQKPGKSPQLLIYYASSLQDGVPSRFSGSGSGTQYSLKISNMQPEDEGVYYCQQGYKYPLTFGSGTKLEIK",no binding (tested: 30 µg/ml top concentration),no binding (tested: 30 µg/ml top concentration)
"07A04 IgG (antibody, V domains shown, also called rat IgG 07A04) VH: QVTLKESGPGILQPSHTLSLTCSFSGFSLSTYGMGVNWIRQPSGKGLEWLASIWWNGNTYNNPSLKSRLTVSKDTSNNQAFLKVTSVDTADTATYYCVHTRGIIRGRGLFFDYWGQGVMVTVSS VL: DVQMTQSPYNLAASPGESVSINCKASKSISKYLAWYQQKPGKANKLLIYDGSTLQSGIPSRFSGSGSGTDFTLTIRSLEPEDFGLYYCQQHNEYPLTFGSGTKLEIKR",no binding (tested: 30 µg/ml top concentration),no binding (tested: 30 µg/ml top concentration)
"5E11 IgG (antibody, V domains shown) VH: ELQLEQSGGGLVQPGGSLTLSCAASGFTFSKYAMAWVRQAPTKGLEWVASISTGGVNTYYRDSVKARFTISRDNAKNTQYLQMDSLRSEDTATYYCATHTGDYFDYWGQGVMVTVSS VL: DIVLTQSPALAVSPGQRATISCRASQSVSISGINLMNWYQQKPGQQPKLLIYHASILASGIPTRFSGSGSGTDFTLTIDPVQADDIATYYCQQTRESPLTFGSGTNLEIK",,no binding (tested: 30 µg/ml top concentration)
"5F11 IgG (antibody, V domains shown) VH: EVQLVESGGGLVQPGRSLKLSCAASGFSFSNYGMAWVRQAATKGLEWVASISTGGGNTYYRDSVKGRFIVSRDNAKNTQYLQMDSLRSEDTATYYCTRHDRGGLYWGQGVMVTVSS VL: DIVMTQAPLSVSVTPGESASISCRSSKSLLHSNGITYVYWYFQKPGKSPQVLIYRMSNLASGVPDRFSGSGSETDFTLKISRVEAEDVGIYHCGQLLENPYTFGAGTELELK",,no binding (tested: 30 µg/ml top concentration)
